What was measured:
[1] = phosphorylation at Y342
β1 integrin = β1 integrin (UniProt P05556); test: co-immunoprecipitation and Western blot; details: reference: wild-type GFP-K18; sites S52

| Substance | other [1] | binding against the reference (β1 integrin) |
| --- | --- | --- |
| ClC-3: Y342F | decreases | – |
| keratin 18 (K18) (from UniProt P05783) S52A GFP-K18 | – | lost |
